Measurements as given in patent US20070026428A1.
One block for each molecule: values may come before it.

What was measured:
Experiment in all cases: cell-based or functional assay
[1] = target: cz::ced-3(p15), CED-3 small subunit with the CZ leucine zipper at its N-terminus (opposite orientation) (C. elegans) (UniProt P42573)
[2] = target: ced-3(p15)::nz, CED-3 small subunit p15 with the NZ anti-parallel leucine zipper at its C-terminus (C. elegans) (UniProt P42573)
[3] = target: Caspase-3(p12)::nz, human Caspase-3 small subunit p12 with the NZ anti-parallel leucine zipper at its C-terminus (human) (UniProt P42574)

Molecule: ced-3(p17)::nz, CED-3 large subunit with the NZ leucine zipper at its C-terminus (opposite orientation) (from UniProt P42573 222-374)
% GFP positive touch cells (surviving cells), zippers in the opposite orientation [1]: 96%

% GFP positive cells in L1 larvae, ced-3(n717) background [2]: 5.9% | % GFP positive cells in L1 larvae, ced-8(n1891) background [2]: 21.9% | % GFP positive cells in adults, ced-3(n717) background [2]: 5.1% | % GFP positive cells in adults, ced-8(n1891) background [2]: 4.5% | % GFP positive cells in adults, recCED-3(uIs37) [2]: 5.4%
Molecule: cz::ced-3(p17), CED-3 large subunit p17 with the CZ anti-parallel leucine zipper at its N-terminus (from UniProt P42573 222-374)
death of touch sensory neurons monitored by the loss of GFP fluorescence, extrachromosomal arrays [2]: > 60% | death of touch sensory neurons, integrated lines [2]: > 95%

% GFP positive cells in adults, ced-3(n717) background [3]: 1% | % GFP positive cells in adults, recCaspase-3(uIs40) [3]: 0.9% | % of YFP positive HeLa cells with nuclear YFP (caspase-sensing EYFP vector) after doxycycline induction [3]: 30 to 40% | animals completely or partially paralyzed within three hours after induction of heat shock, hsp-16 and myo-3 promoters [3]: > 50% | animals completely paralyzed within 12 hours after heat shock, hsp-16 and myo-3 promoters [3]: 100%
B1: cz::Caspase-3(p17), human Caspase-3 large subunit p17 with the CZ anti-parallel leucine zipper at its N-terminus (protein, part only; not given: Exact insert limits, part only)
chain, part: GGSGMENTENSVDSKSIKNLEPKIIHGSESMDSGISLDNSYKMDYPEMGLCIIINNKNFHKSTGMTSRSGTDVDAANLRETFRNLKYEVRNKNDLTREEIVELMRDVSKEDHSKRSSFVCVLLSHGEEGIIFGTNGPVDLKKITNFFRGDRCRSLTGKPKLFIIQACRGTELDCGIETD
apoptotic death of touch sensory neurons in C. elegans, extrachromosomal arrays [3]: 80% | death of touch receptor neurons in C. elegans, integrated DNA [3]: 100% | killing of embryonically derived ALM and PLM touch neurons after heat shock in the embryo, hsp-16 and mec-18 promoters [3]: > 90% | paralysis of animals (death of body wall muscle cells) after heat shock, hsp-16 and myo-3 promoters [3]: > 90%
